In US20050106100:

Tests used:
Ac-P-Cit-G˜Hphe-LQ-Hynic = target: T1, Ac-P-Cit-G˜Hphe-LQ-Hynic (not fully specified)
T1 chain: PXGXLQ

Ac-PLG˜LL-Ahxh-Ac[C14] = target: T2, Ac-PLG˜LL-Ahxh-Ac[C14] (not fully specified)
T2 chain: PLGLL

[1] = target: T3, Ac-POG˜Hphe-Smc-T-Ahxh-Hynic
T3 chain: PXGXXT

[2] = target: T4, Ac-PL-NLys˜Hphe-RL-Ahxh-Ac[C14] (not fully specified)
T4 chain: PLXXRL

[3] = target: T5, Ac-P-Cit-G˜Hphe-Cit-L-Ahxh-Hynic (not fully specified)
T5 chain: PXGXXL

Ac-PLG˜Hphe-YL-Hynic = target: T6, Ac-PLG˜Hphe-YL-Hynic
T6 chain: PLGXYL

[4] = target: T7, Ac-PLG˜Hphe-OL-Ambh-Hynic
T7 chain: PLGXXL

[5] = target: T8, Ac-NLys-PLG˜Hphe-RLA-Ahxh-Hynic (not fully specified)
T8 chain: XPLGXRLA

[6] = target: T9, Ac-PLG˜Pabu-Cit-L-Ahxh-Ac[C14] (not fully specified)
T9 chain: PLGXXL

Ac-PLG˜LL-Ahxh-Hynic = target: T10, Ac-PLG˜LL-Ahxh-Hynic
T10 chain: PLGLL

[7] = target: T11, Ac-P-Cit-G˜Aib-LA-Ahxh-Hynic (not fully specified)
T11 chain: PXGXLA

[8] = target: T12, Ac-PL-NLys˜Hphe-L-Ahxh-Ac[C14] (not fully specified)
T12 chain: PLXXL

Ac-PRG˜LLT-Ahxh-Hynic = target: T13, Ac-PRG˜LLT-Ahxh-Hynic
T13 chain: PRGLLT

[9] = target: T14, Ac-P-Cit-Cit-LTA-Ahxh-Hynic
T14 chain: PXXLTA

[10] = target: T15, Ac-PLG˜Cit-LA-Ahxh-Ac[C14] (not fully specified)
T15 chain: PLGXLA

Ac-PL-DAla˜LL-Ahxh-Hynic = target: T16, Ac-PL-DAla˜LL-Ahxh-Hynic (not fully specified)
T16 chain: PLALL

Ac-PLG-LYV-Ahxh-Ac[C14] = target: T17, Ac-PLG-LYV-Ahxh-Ac[C14]
T17 chain: PLGLYV

[11] = target: T18, Ac-P-Cit-G˜Hphe-OL-Ahxh-Ac[C14] (not fully specified)
T18 chain: PXGXXL

[12] = target: T19, Ac-PL-Sar˜LL-Ahxh-Ac[C14] (not fully specified)
T19 chain: PLXLL

[13] = target: T20, Ac-PLG˜Hphe-OLR-Ahxh-Hynic
T20 chain: PLGXXLR

Piv-PLG˜LYT-Ahxh-Hynic = target: T21, Piv-PLG˜LYT-Ahxh-Hynic
T21 chain: PLGLYT

[14] = target: T22, Ac-P-Cit-G˜S(OBn)-LA-Ahxh-Ac[C14] (not fully specified)
T22 chain: PXGSLA

[15] = target: T23, Ac-POG˜Hphe-LA-Ahxh-Hynic
T23 chain: PXGXLA

[16] = target: T24, NLys-NLys-PLG˜Hphe-YL-Ahxh-Hynic
T24 chain: XXPLGXYL

Ac-PLG˜LYL-Ahxh-Hynic = target: T25, Ac-PLG˜LYL-Ahxh-Hynic (not fully specified)
T25 chain: PLGLYL

Ac-PLG˜LYS-Ahxh-Ac[C14] = target: T26, Ac-PLG˜LYS-Ahxh-Ac[C14] (not fully specified)
T26 chain: PLGLYS

[17] = target: T27, Ac-PLG˜Hphe-R-Ahxh-Ac[C14] (not fully specified)
T27 chain: PLGXR

[18] = target: T28, Ac-P-Cit-G˜Hphe-L-Ahxh-Hynic (not fully specified)
T28 chain: PXGXL

[19] = target: T29, Ac-PL-NLys˜Ahp-YL-Ahxh-Ac[C14] (not fully specified)
T29 chain: PLXXYL

[20] = target: T30, Ac-PLG˜Hphe-RLA-Ahxh-Hynic
T30 chain: PLGXRLA

Ac-PLG˜LL-Ambh-Hynic = target: T31, Ac-PLG˜LL-Ambh-Hynic
T31 chain: PLGLL

[21] = target: T32, Ac-PLG˜Ahp-YL-Ahxh-Ac[C14] (not fully specified)
T32 chain: PLGXYL

Ac-PLG˜LLA-Ahxh-Hynic = target: T33, Ac-PLG˜LLA-Ahxh-Hynic (not fully specified)
T33 chain: PLGLLA

[22] = target: T34, Ac-PLG˜Hphe-K(Me)2-L-Ahxh-Hynic (not fully specified)
T34 chain: PLGXKL

[23] = target: T35, Ac-PLG˜S(OBn)-LL-Ahxh-Hynic
T35 chain: PLGSLL

[24] = target: T36, Ac-PLG˜Hphe-RL-Ahxh-Hynic
T36 chain: PLGXRL

Ac-PR-Cit˜LSA-Ahxh-Hynic = target: T37, Ac-PR-Cit˜LSA-Ahxh-Hynic
T37 chain: PRXLSA

Ac-PLG˜LHL-Ahxh-Hynic = target: T38, Ac-PLG˜LHL-Ahxh-Hynic
T38 chain: PLGLHL

[25] = target: T39, Ac-P-Cit-Abu˜LTA-Ahxh-Hynic (not fully specified)
T39 chain: PXXLTA

Ac-POG˜Hphe-L-Hynic = target: T40, Ac-POG˜Hphe-L-Hynic
T40 chain: PXGXL

Ac-PLG˜LRA-Ahxh-Hynic = target: T41, Ac-PLG˜LRA-Ahxh-Hynic (not fully specified)
T41 chain: PLGLRA

[26] = target: T42, Ac-PLG˜Hphe-YL-Ahxh-Hynic (not fully specified)
T42 chain: PLGXYL

[27] = target: T43, Ac-P-DLeu-G˜LL-Ahxh-Hynic (not fully specified)
T43 chain: PLGLL

[28] = target: T44, Ac-PRG˜Hphe-Dab-A-Ahxh-Hynic
T44 chain: PRGXXA

Ac-PRR˜LTA-Ahxh-Hynic = target: T45, Ac-PRR˜LTA-Ahxh-Hynic
T45 chain: PRRLTA

[29] = target: T46, Ac-Csa-PLG˜Hphe-YL-Ambh-Hynic (not fully specified)
T46 chain: XPLGXYL

[30] = target: T47, Ac-PL-NLys-LL-NHNH-Ac[C14]
T47 chain: PLXLL

[31] = target: T48, Ac-P-Cha-G˜Smc-HA-Ahxh-Hynic (not fully specified)
T48 chain: PXGXHA

[32] = target: T49, Ac-PRG˜Hphe-LA-Ahxh-Hynic
T49 chain: PRGXLA

[33] = target: T50, Ac-POG˜Hphe-L-Nle-Ahxh-Hynic
T50 chain: PXGXLX

Ac-PRR˜Cha-TA-Ambh-Hynic = target: T51, Ac-PRR˜Cha-TA-Ambh-Hynic
T51 chain: PRRXTA

[34] = target: T52, H-DArg-P-Cit-G˜cLeu-LA-Ahxh-Hynic (not fully specified)
T52 chain: RPXGXLA

B1: human MMP-9 (protein)
chain: MRTPRCGVPDLGRFQTFEGDLKWHHHNITYWIQNYSEDLPRAVIDDAFARAFALWSAVTPLTFTRVYSRDADIVIQFGVAEHGDGYPFDGKDGLLAHAFPPGPGIQGDAHFDDDELWSLGKGVVVPTRFGNADGAACHFPFIFEGRSYSACTTDGRSDGLPWCSTTANYDTDDRFGFCPSERLYTQDGNADGKPCQFPFIFQGQSYSACTTDGRSDGYRWCATTANYDRDKLFGFCPTRADSTVMGGNSAGELCVFPFTFLGKEYSTCTSEGRGDGRLWCATTSNFDSDKKWGFCPDQGYSLFLVAAHEFGHALGLDHSSVPEALMYPMYRFTEGPPLHKDDVNGIRHLYGPRPEPEPRPPTTTTPQPTAPPTVCPTGPPTVHPSERPTAGPTGPPSAGPTGPPTAGPSTATTVPLSPVDDACNVNIFDAIAEIGNQLYLFKDGKYWRFSEGRGSRPQGPFLIADKWPALPRKLDSVFEERLSKKLFFFSGRQVWVYTGASVLGPRRLDKLGLGADVAQVTGALRSGRGKMLLFSGRRLWRFDVKAQMVDPRSASEVDRMFPGVPLDTHDVFQYREKAYFCQDRFYWRVSSRSELNQVDQVGYVTYDILQCPED
For B1, which Kcat/Km (Ac-P-Cit-G˜Hphe-LQ-Hynic) is on record?
Its Kcat/Km is 79600 M⁻¹ s⁻¹.

What about the Kcat/Km (Ac-PLG˜LL-Ahxh-Ac[C14]) of the same protein?
Its Kcat/Km is 134000 M⁻¹ s⁻¹.

What about the Kcat/Km [1] of the same protein?
The Kcat/Km was 85400 M⁻¹ s⁻¹.

What about the Kcat/Km [2] of the same protein?
The Kcat/Km was 114000 M⁻¹ s⁻¹.

What about the Kcat/Km [3] of the same protein?
The Kcat/Km was 11400 M⁻¹ s⁻¹.

And the Kcat/Km (Ac-PLG˜Hphe-YL-Hynic)?
The Kcat/Km was over 100000 M⁻¹ s⁻¹.

And the Kcat/Km [4]?
Its Kcat/Km is 57700 M⁻¹ s⁻¹.

And the Kcat/Km [5]?
The Kcat/Km was 373000 M⁻¹ s⁻¹.

What about the Kcat/Km [6] of the same protein?
Its Kcat/Km is 0 M⁻¹ s⁻¹.

What about the Kcat/Km (Ac-PLG˜LL-Ahxh-Hynic) of the same protein?
Its Kcat/Km is 218000 M⁻¹ s⁻¹.

What about the Kcat/Km [7] of the same protein?
The Kcat/Km was 772 M⁻¹ s⁻¹.

And the Kcat/Km [8]?
The Kcat/Km was 289000 M⁻¹ s⁻¹.

What about the Kcat/Km (Ac-PRG˜LLT-Ahxh-Hynic) of the same protein?
Its Kcat/Km is 73300 M⁻¹ s⁻¹.

And the Kcat/Km [9]?
Its Kcat/Km is 29300 M⁻¹ s⁻¹.

And the Kcat/Km [10]?
The Kcat/Km was 34000 M⁻¹ s⁻¹.

And the Kcat/Km (Ac-PL-DAla˜LL-Ahxh-Hynic)?
Its Kcat/Km is 0 M⁻¹ s⁻¹.

What about the Kcat/Km (Ac-PLG-LYV-Ahxh-Ac[C14]) of the same protein?
Its Kcat/Km is over 500000 M⁻¹ s⁻¹.

What about the Kcat/Km [11] of the same protein?
The Kcat/Km was 28600 M⁻¹ s⁻¹.

What about the Kcat/Km [12] of the same protein?
Its Kcat/Km is 143000 M⁻¹ s⁻¹.

And the Kcat/Km [13]?
The Kcat/Km was 22100 M⁻¹ s⁻¹.

What about the Kcat/Km (Piv-PLG˜LYT-Ahxh-Hynic) of the same protein?
Its Kcat/Km is 281000 M⁻¹ s⁻¹.

What about the Kcat/Km [14] of the same protein?
Its Kcat/Km is over 500000 M⁻¹ s⁻¹.

What about the Kcat/Km [15] of the same protein?
The Kcat/Km was over 500000 M⁻¹ s⁻¹.

And the Kcat/Km [16]?
Its Kcat/Km is 33800 M⁻¹ s⁻¹.

What about the Kcat/Km (Ac-PLG˜LYL-Ahxh-Hynic) of the same protein?
The Kcat/Km was 95000 M⁻¹ s⁻¹.

And the Kcat/Km (Ac-PLG˜LYS-Ahxh-Ac[C14])?
Its Kcat/Km is over 500000 M⁻¹ s⁻¹.

And the Kcat/Km [17]?
The Kcat/Km was over 500000 M⁻¹ s⁻¹.

What about the Kcat/Km [18] of the same protein?
The Kcat/Km was 33300 M⁻¹ s⁻¹.

What about the Kcat/Km [19] of the same protein?
The Kcat/Km was 0 M⁻¹ s⁻¹.

And the Kcat/Km [20]?
Its Kcat/Km is 57700 M⁻¹ s⁻¹.

What about the Kcat/Km (Ac-PLG˜LL-Ambh-Hynic) of the same protein?
The Kcat/Km was 36300 M⁻¹ s⁻¹.

And the Kcat/Km [21]?
Its Kcat/Km is 60400 M⁻¹ s⁻¹.

What about the Kcat/Km (Ac-PLG˜LLA-Ahxh-Hynic) of the same protein?
The Kcat/Km was 226000 M⁻¹ s⁻¹.

What about the Kcat/Km [22] of the same protein?
Its Kcat/Km is 55000 M⁻¹ s⁻¹.

And the Kcat/Km [23]?
Its Kcat/Km is 187000 M⁻¹ s⁻¹.

And the Kcat/Km [24]?
The Kcat/Km was 168000 M⁻¹ s⁻¹.

What about the Kcat/Km (Ac-PR-Cit˜LSA-Ahxh-Hynic) of the same protein?
Its Kcat/Km is 40100 M⁻¹ s⁻¹.

And the Kcat/Km (Ac-PLG˜LHL-Ahxh-Hynic)?
Its Kcat/Km is 156000 M⁻¹ s⁻¹.

And the Kcat/Km [25]?
Its Kcat/Km is 77800 M⁻¹ s⁻¹.

And the Kcat/Km (Ac-POG˜Hphe-L-Hynic)?
Its Kcat/Km is 4450 M⁻¹ s⁻¹.

What about the Kcat/Km (Ac-PLG˜LRA-Ahxh-Hynic) of the same protein?
Its Kcat/Km is over 500000 M⁻¹ s⁻¹.

What about the Kcat/Km [26] of the same protein?
The Kcat/Km was over 100000 M⁻¹ s⁻¹.

What about the Kcat/Km [27] of the same protein?
Its Kcat/Km is 438 M⁻¹ s⁻¹.

What about the Kcat/Km [28] of the same protein?
Its Kcat/Km is 474000 M⁻¹ s⁻¹.

What about the Kcat/Km (Ac-PRR˜LTA-Ahxh-Hynic) of the same protein?
Its Kcat/Km is 33500 M⁻¹ s⁻¹.

What about the Kcat/Km [29] of the same protein?
Its Kcat/Km is 41600 M⁻¹ s⁻¹.

What about the Kcat/Km [30] of the same protein?
The Kcat/Km was 138000 M⁻¹ s⁻¹.

What about the Kcat/Km [31] of the same protein?
The Kcat/Km was over 250000 M⁻¹ s⁻¹.

What about the Kcat/Km [32] of the same protein?
The Kcat/Km was over 500000 M⁻¹ s⁻¹.

What about the Kcat/Km [33] of the same protein?
Its Kcat/Km is 52000 M⁻¹ s⁻¹.

What about the Kcat/Km (Ac-PRR˜Cha-TA-Ambh-Hynic) of the same protein?
Its Kcat/Km is 1580 M⁻¹ s⁻¹.

What about the Kcat/Km [34] of the same protein?
The Kcat/Km was 0 M⁻¹ s⁻¹.
